One block for each sequence: values may come before it.
What was measured:
HLA-B*15:01 [1] = test: IEDB peptide-MHC binding, purified MHC/competitive/fluorescence; filed as Kd, often an IC50 or EC50 that approximates it; ≥ and ≤ were set here for values at or beyond the usual limits of such assays; details: source organism: Cryptosporidium parvum Iowa II
HLA-A*02:01 [2] = test: as above; details: source organism: Cryptosporidium parvum Iowa II
HLA-A*02:11 = test: as above; details: source organism: Cryptosporidium parvum Iowa II
HLA-A*03:01 [3] = test: as above; details: source organism: Cryptosporidium parvum Iowa II
HLA-A*02:03 = test: as above; details: source organism: Cryptosporidium parvum Iowa II
HLA-B*46:01 [4] = test: as above
HLA-B*51:01 = test: as above
HLA-A*26:01 [5] = test: as above; details: source organism: Cryptosporidium parvum Iowa II
HLA-B*18:01 = test: as above; details: source organism: Cryptosporidium parvum Iowa II
HLA-B*57:01 [6] = test: as above; details: source organism: Cryptosporidium parvum Iowa II
HLA-C*12:03 = test: IEDB peptide-MHC binding, purified MHC/direct/fluorescence; filed as Kd, often an IC50 or EC50 that approximates it; ≥ and ≤ were set here for values at or beyond the usual limits of such assays
HLA-B*39:01 [7] = test: as above
HLA-B*15:01 [8] = test: as above
HLA-A*01:01 [9] = test: as above
HLA-A*02:01 [10] = test: as above
HLA-A*31:01 = test: as above
HLA-A*11:01 = test: as above
HLA-B*48:01 = test: as above; details: source organism: Mammarenavirus lassaense
HLA-A*03:01 [11] = test: as above
HLA-B*27:05 = test: as above
HLA-B*46:01 [12] = test: as above; details: source organism: Mammarenavirus lassaense
HLA-B*58:01 [13] = test: as above
HLA-B*57:01 [14] = test: as above
HLA-B*07:02 [15] = test: as above
HLA-B*44:02 = test: as above
HLA-B*07:02 [16] = test: IEDB peptide-MHC binding, purified MHC/competitive/fluorescence; ≥ and ≤ were set here for values at or beyond the usual limits of such assays
HLA-A*02:01 [17] = test: as above; details: source organism: Zaire ebolavirus
HLA-A*24:02 [18] = test: as above; details: source organism: Zaire ebolavirus
HLA-B*15:17 = test: IEDB peptide-MHC binding, purified MHC/direct/fluorescence; filed as Kd, often an IC50 or EC50 that approximates it; ≥ and ≤ were set here for values at or beyond the usual limits of such assays
HLA-B*15:42 = test: IEDB peptide-MHC binding, purified MHC/competitive/fluorescence; filed as Kd, often an IC50 or EC50 that approximates it; ≥ and ≤ were set here for values at or beyond the usual limits of such assays; details: source organism: Yellow fever virus
HLA-B*45:06 = test: as above; details: source organism: Yellow fever virus
HLA-B*83:01 = test: as above; details: source organism: Yellow fever virus
HLA-B*27:03 = test: as above; details: source organism: Tetraodon nigroviridis
HLA-B*39:01 [19] = test: as above; details: source organism: Tetraodon nigroviridis
HLA-B*08:01 = test: IEDB peptide-MHC binding, purified MHC/direct/fluorescence; filed as Kd, often an IC50 or EC50 that approximates it; ≥ and ≤ were set here for values at or beyond the usual limits of such assays; details: source organism: Giardia lamblia ATCC 50803
HLA-A*69:01 = test: as above; details: source organism: Giardia lamblia ATCC 50803
HLA-A*26:01 [20] = test: as above; details: source organism: Giardia lamblia ATCC 50803
HLA-B*40:01 = test: as above; details: source organism: Giardia lamblia ATCC 50803
HLA-A*01:01 [21] = test: IEDB peptide-MHC binding, purified MHC/competitive/radioactivity; filed as Kd, often an IC50 or EC50 that approximates it; ≥ and ≤ were set here for values at or beyond the usual limits of such assays
HLA-B*58:01 [22] = test: as above
HLA-B*57:01 [23] = test: as above
HLA-A*24:02 [24] = test: as above; details: source organism: Dengue virus 1 Singapore/S275/1990
HLA-A*23:01 = test: as above; details: source organism: Dengue virus 1 Singapore/S275/1990
HLA-A*26:01 [25] = test: as above; details: source organism: Dengue virus 1 Singapore/S275/1990
HLA-B*53:01 = test: as above; details: source organism: Dengue virus 4 Philippines/H241/1956
[26] = source organism: Cryptosporidium parvum Iowa II
[27] = source organism: Mammarenavirus lassaense
[28] = source organism: Zaire ebolavirus
[29] = source organism: Cryptosporidium parvum
[30] = source organism: Tetraodon nigroviridis
[31] = source organism: Mycobacterium tuberculosis
[32] = source organism: Giardia lamblia ATCC 50803
[33] = source organism: Dengue virus 1 Brazil/97-11/1997
[34] = source organism: Dengue virus 1 Singapore/S275/1990
[35] = source organism: Dengue virus 4 Philippines/H241/1956

Sequence: ERTDLFFPV
Kd (HLA-B*15:01 [1]): ≥ 20 µM | Kd (HLA-A*02:01 [2]): ≥ 20 µM | Kd (HLA-A*02:11): 2.82 µM | Kd (HLA-A*03:01 [3]): ≥ 20 µM | Kd (HLA-A*02:03): ≥ 20 µM | Kd (HLA-B*46:01 [4]; [26]): ≥ 20 µM | Kd (HLA-B*51:01; [26]): ≥ 20 µM | Kd (HLA-A*26:01 [5]): ≥ 20 µM | Kd (HLA-B*18:01): ≥ 20 µM | Kd (HLA-B*57:01 [6]): ≥ 20 µM

Sequence: FLSDYGPQL
Kd (HLA-C*12:03; source organism: Mycobacterium tuberculosis variant bovis BCG str. Pasteur 1173P2): 0.233 µM

Sequence: FRGRGVFEL
Kd (HLA-B*39:01 [7]; source organism: Influenza A virus (A/Moscow/10/1999(H3N2))): 0.0621 µM

Sequence: IEEVMNIVL
Kd (HLA-B*15:01 [8]; [27]): ≥ 20 µM | Kd (HLA-A*01:01 [9]; [27]): ≥ 20 µM | Kd (HLA-A*02:01 [10]; [27]): ≥ 20 µM | Kd (HLA-A*31:01; [27]): ≥ 20 µM | Kd (HLA-A*11:01; [27]): ≥ 20 µM | Kd (HLA-B*48:01): ≥ 20 µM | Kd (HLA-A*03:01 [11]; [27]): ≥ 20 µM | Kd (HLA-B*27:05; [27]): ≥ 20 µM | Kd (HLA-B*46:01 [12]): ≥ 20 µM | Kd (HLA-B*58:01 [13]; [27]): ≥ 20 µM | Kd (HLA-B*57:01 [14]; [27]): ≥ 20 µM | Kd (HLA-B*07:02 [15]; [27]): ≥ 20 µM | Kd (HLA-B*39:01 [7]; [27]): 0.946 µM | Kd (HLA-B*44:02; [27]): ≥ 20 µM

Sequence: IKRTLAAMP
IC50 (HLA-B*07:02 [16]; [28]): ≥ 151 µM

Sequence: IVKTVLDHI
IC50 (HLA-A*02:01 [17]): ≥ 91.6 µM | IC50 (HLA-A*24:02 [18]): 6.71 µM | IC50 (HLA-B*07:02 [16]; [28]): ≥ 170 µM

Sequence: KPPKFRAFR
IC50 (HLA-B*07:02 [16]; source organism: Vaccinia virus): ≥ 169 µM

Sequence: KSFGRISVL
Kd (HLA-C*12:03; [26]): ≤ 0.001 µM | Kd (HLA-B*15:17; [29]): 0.0008 µM | Kd (HLA-B*58:01 [13]; [29]): 0.0176 µM | Kd (HLA-B*57:01 [14]; [26]): 0.316 µM

Sequence: KVSGTGPCA
IC50 (HLA-A*02:01 [17]): ≥ 118 µM | IC50 (HLA-B*07:02 [16]; [28]): ≥ 96.8 µM

Sequence: LFPQLSAIA
IC50 (HLA-A*02:01 [17]): 32.7 µM | IC50 (HLA-A*24:02 [18]): 13.9 µM | IC50 (HLA-B*07:02 [16]; [28]): ≥ 142 µM

Sequence: MVIFFMSPK
Kd (HLA-B*15:42): ≥ 5 µM | Kd (HLA-B*45:06): ≥ 5 µM | Kd (HLA-B*83:01): ≥ 5 µM

Kd (HLA-C*12:03; [30]): ≤ 0.001 µM | Kd (HLA-A*01:01 [9]; source organism: Danio rerio): 0.52 µM | Kd (HLA-B*46:01 [4]; [30]): ≥ 20 µM | Kd (HLA-B*51:01; [30]): ≥ 20 µM | Kd (HLA-B*27:03): ≥ 20 µM | Kd (HLA-B*39:01 [19]): ≥ 20 µM
Sequence: NTFKFGVIY

Sequence: RAYWIHLMM
Kd (HLA-C*12:03; source organism: Mycobacterium tuberculosis C): 0.002 µM | Kd (HLA-B*15:17; [31]): 0.0022 µM | Kd (HLA-B*58:01 [13]; [31]): 0.0957 µM | Kd (HLA-B*57:01 [14]; source organism: Mycobacterium tuberculosis str. Haarlem): 0.165 µM

Sequence: SHSIPNGLL
Kd (HLA-B*15:01 [8]; [32]): ≥ 20 µM | Kd (HLA-A*01:01 [9]; [32]): ≥ 20 µM | Kd (HLA-A*02:01 [10]; [32]): ≥ 20 µM | Kd (HLA-A*31:01; [32]): ≥ 20 µM | Kd (HLA-A*11:01; [32]): ≥ 20 µM | Kd (HLA-B*08:01): ≥ 20 µM | Kd (HLA-A*03:01 [11]; [32]): ≥ 20 µM | Kd (HLA-B*27:05; [32]): ≥ 20 µM | Kd (HLA-A*69:01): ≥ 20 µM | Kd (HLA-B*58:01 [13]; [32]): ≥ 20 µM | Kd (HLA-A*26:01 [20]): ≥ 20 µM | Kd (HLA-B*40:01): ≥ 20 µM | Kd (HLA-B*07:02 [15]; [32]): ≥ 20 µM | Kd (HLA-B*39:01 [7]; [32]): 0.353 µM | Kd (HLA-B*44:02; [32]): ≥ 20 µM

Sequence: VSSWEEVPYL
Kd (HLA-A*01:01 [21]; [33]): 12.4 µM | Kd (HLA-B*58:01 [22]; [33]): 0.256 µM | Kd (HLA-B*57:01 [23]; [33]): 0.384 µM

Sequence: VTARWLWGF
Kd (HLA-A*01:01 [21]; [34]): 4 µM | Kd (HLA-A*24:02 [24]): 0.152 µM | Kd (HLA-B*58:01 [22]; [34]): 0.038 µM | Kd (HLA-A*23:01): 0.134 µM | Kd (HLA-A*26:01 [25]): 7.07 µM | Kd (HLA-B*57:01 [23]; [34]): 0.0016 µM

Sequence: YATQTVGPW
Kd (HLA-B*53:01): 0.0279 µM | Kd (HLA-B*58:01 [22]; [35]): 0.0168 µM | Kd (HLA-B*57:01 [23]; [35]): 0.605 µM
